# From patent publication US9750803B2, “Lipid vesicle compositions and methods of use” (priority 2010, dated 2017)
# B1: ovalbumin (protein, UniProt P01012 2-386, looked up)
# Ovalbumin: GSIGAASMEFCFDVFKELKVHHANENIFYCPIAIMSALAMVYLGAKDSTRTQINKVVRFDKLPGFGDSIEAQCGTSVNVHSSLRDILNQITKPNDVYSFSLASRLYAEERYPILPEYLQCVKELYRGGLEPINFQTAADQARELINSWVESQTNGIIRNVLQPSSVDSQTAMVLVNAIVFKGLWEKAFKDEDTQAMPFRVTEQESKPVQMMYQIGLFRVASMASEKMKILELPFASGTMSMLVLLPDEVSGLEQLESIINFEKLTEWTSSNVMEERKIKVYLPRMKMEEKYNLTSVLMAMGITDVFSSSANLSGISSAESLKISQAVHAAHAEINEAGREVVGSAEAGVDAASVSEEFRADHPFLFCIKHIATNAVLFFGRCVSP
# B2: soluble VMP: recombinant vivax malaria protein (VMP001, SEQ ID NO:1) given as soluble protein with MPLA, Montanide or alum (protein)
# chain: THCGHNVDLSKAINLNGVNFNNVDASSLGAAHVGQSASRGRGLGENPDDEEGDAKKKKDGKKAEPKNPRENKLKQPGDRADGQAAGNGAGGQPAGDRAAGQPAGDRAAGQPAGDGAAGQPAGDRADGQPAGDRADGQPAGDRAAGQAAGNGAGGQAAANGAGNQPGGGNAANKKAEDAGGNAGGNAGGQGQNNEGANAPNEKSVKEYLDKVRATVGTEWTPCSVTCGVGVRVRRRVNAANKKPEDLTLNDLETDVCT
# modifications: VMP Amino Acid Sequence
# Key:
# [1] = system: CD45.1+ recipient mice; assay: Expansion of adoptively transferred OT-II CD4+ T-cells after immunization; format: in vivo, mouse; conditions: eight days post priming
# Experimental: (§1) Germinal center and follicular helper T cell analysis. Mice were immunized s.c. with 5 μg of MPLA and 100 μg of OVA-alexa fluor 555 in either soluble or ICMV formulations (lipids labeled with DiD). At serial time-points, dLNs were isolated, flash-frozen, cryo-sectioned, and examined by confocal microscopy. To identify cell types associated with particles, dLNs were isolated on d 1 or 4, stained with anti-CD11b, anti-CD11c, anti-CD169, anti-CD205, and F4/80, and analyzed by flow cytometry. To assess GC formation, dLNs were isolated on d14 from mice immunized with 1 μg of unlabeled soluble VMP or VMP-ICMVs (both with 0.1 μg MPLA), stained with anti-B220, anti-IgD, anti-GL-7 (BD), peanut agglutinin (Vectorlabs, Burlingame, Calif.), and analyzed by flow cytometry or confocal microscopy. To monitor antigen-specific CD4+ T-cells, […] OVA-specific CD4+ T cells from OT-II (CD45.2+) mice were adoptively transferred i.v. into recipient congenic CD45.1+ mice. After 1 d, recipient mice were immunized s.c. with 10 μg of OVA in either soluble or ICMV formulations, both with 1 μg MPLA. A second comparison group of mice were immunized s.c. with 100 μg OVA in alum. The frequencies of OVA-specific CD4+ T cells and their phenotypes in spleens and dLNs were determined by flow cytometry analysis, following staining with DAPI, anti-CD4, anti-CD45.2, anti-PD-1, and anti-CXCR5 (BD).
# [2] = system: C57Bl/6 mice; assay: Example 2 vaccination: anti-OVA IgG serum titers by ELISA; format: in vivo, mouse; conditions: low dose of MPLA (0.1 μg), two boosts, day 56
# Experimental: (§2) Vaccination study with ICMVs. Groups of C57Bl/6 mice (Jackson Laboratories) were immunized s.c. in the tail base with indicated doses of OVA (with or without TLR agonist MPLA). Frequencies of OVA-specific CD8^+ T-cells and their phenotypes elicited by immunization were determined by flow cytometry analysis of PBMCs at selected time points following staining with DAPI (to discriminate live/dead cells), anti-CD8 alpha, anti-CD44, anti-CD62L, and […]/H-2K^b peptide-MHC tetramers (Becton Dickinson). To assess functionality of primed CD8^+ T-cells, PBMCs were stimulated ex vivo with 1 μM OVA-peptide […] for 6 hrs with GolgiPlug (Becton Dickinson), fixed, permeabilized, stained with anti-IFN-gamma and CD8 alpha, and analyzed by flow cytometry. Anti-OVA IgG titers, defined as the dilution of sera at which 450 nm OD reading is 0.5, were determined by ELISA analysis of sera from immunized mice. Animals were cared for following NIH, state, and local guidelines.
# [3] = system: C57Bl/6 mice; assay: Example 2 vaccination: tetramer+ OVA-specific CD8+ T-cells in PBMCs; format: in vivo, mouse; conditions: mixed with 0.1 μg MPLA
# Experimental: as §2
# [4] = system: OVA-specific naïve OT-I CD8+ T-cells; assay: CFSE dilution proliferation assay of OT-I CD8+ T-cells co-cultured with pulsed splenic DCs; format: cell-based; conditions: DCs pulsed with 0.7 μg/mL OVA equivalent, 0.1 μg/mL MPLA, day 3
# Experimental: FIGS. 7A-7C. In vitro stimulation of immune responses by ICMVs supplemented with the TLR agonist MPLA. (A) Flow cytometry analysis of expression of the cell surface costimulatory markers CD40, CD80, and CD86 on splenic dendritic cells (DCs) after 18 hr incubation with 0.7 μg/mL soluble OVA, equivalent doses of OVA loaded in ICMVs, or ICMVs loaded with an irrelevant protein (vivax malaria protein, VMP), in the presence or absence of 0.1 μg/mL MPLA. (B) Splenic DCs were incubated for 18 hr with 10 μg/mL […] peptide (OVA257-264), 5.0 μg/mL soluble OVA, equivalent doses of OVA loaded in ICMVs, or VMP-loaded ICMVs in the presence or absence of 0.05 μg/mL MPLA, and the extent of cross-presentation of OVA was assessed by flow cytometry analysis of cells stained with the 25-D1.16 mAb that recognizes […] complexed with H-2K^b. (C) 5-(6)-carboxyfluorescein diacetate succinimidyl diester (CFSE)-labeled OVA-specific naïve OT-I CD8^+ T-cells were co-cultured with syngeneic splenic DCs pulsed with soluble 0.7 μg/mL OVA mixed with 0.1 μg/mL MPLA, or equivalent doses of OVA-loaded ICMVs mixed with MPLA. Empty ICMVs without antigen or ICMVs loaded with the irrelevant antigen VMP were included as negative controls. Proliferation of CD8^+ T-cells was assessed on day 3 by flow cytometry analysis of the dilution of CFSE in the OT-I CD8^+ T-cells; shown are histograms of CFSE fluorescence. […]
# [5] = system: mice; assay: Antigen delivery to draining lymph nodes (histology at serial time-points); format: in vivo, mouse; conditions: s.c., with MPLA
# Experimental: as §1
# [6] = system: C57Bl/6 mice; assay: Example 3 immunization: anti-VMP IgG serum titers and isotypes by ELISA; format: in vivo, mouse
# Experimental: (§3) Immunizations. Animals were cared for following NIH, state, and local guidelines. Groups of 6-10-wk old female C57Bl/6 mice (Jackson Laboratories, Bar Harbor, Me.) were immunized s.c. at the tail base with VMP-ICMVs and indicated doses of MPLA (Sigma-Aldrich, St. Louis, Mo.) in 100 μL PBS on day 0 and 21. Control immunizations with soluble VMP were performed using MPLA, Montanide ISA-50 V2 (Seppic, N.J.), or alum (Imject alum, Pierce, Rockford, Ill.) at an adjuvant:protein solution vol. ratio of 1:1 following the manufacturer's instructions.
# (§4) Characterization of anti-VMP humoral responses. Sera were analyzed for IgG, IgG1, and IgG2c antibodies by ELISA using VMP-coated plates (Bell et al. 2009 Vaccine 27:1448-1453). Anti-VMP IgG titers were defined as the lowest serum dilution at which the ELISA OD reading was ≧0.5. Avidity measurements were performed by incubating plates with 6 M urea for 10 min at 20° C. to remove weakly bound IgG prior to addition of detection Ab. The avidity index was defined as (IgG titer with 6 M urea/IgG titer without urea)×100. […] Splenocytes isolated 7 d after boost vaccinations were restimulated ex vivo with either PBS or VMP-ICMV at 2 μg/ml, and on d2, cytokine levels in the culture supernatants were measured by flow cytometry (Cytometric Bead Array, BD).
# [7] = system: mice; assay: Germinal center analysis in draining lymph nodes; format: in vivo, mouse; conditions: 100 ng VMP, with MPLA, histological analysis
# Experimental: as §1, with “To assess GC formation, dLNs were isolated on d14 from mice immunized with 1 μg of unlabeled soluble VMP or VMP-ICMVs (both with 0.1 μg MPLA), stained with anti-B220, anti-IgD, anti-GL-7 (BD), peanut agglutinin (Vectorlabs, Burlingame, Calif.), and analyzed by flow cytometry or confocal microscopy.” left out
# [8] = system: C57Bl/6 mice; assay: Epitope analysis of anti-VMP sera on VMP peptide fragments; format: in vivo, mouse; conditions: d 90
# Experimental: as §3, §4
molecule,measurement,setting,value
ovalbumin [soluble OVA],"Expansion of OT-II CD4+ T-cells in spleens, fold compared to PBS",[1],~6.3 fold
same,Anti-OVA serum IgG response,[2],barely detectable antibody response
same,Antigen-specific T-cell expansion by tetramer staining,[3],barely detectable
same,Proliferation of OT-I CD8+ T-cells,[4],weak T-cell responses
B1,Time at which antigen was detected in dLNs,[5],≤ 4 h
B2,Fold more protein required to elicit a response than VMP-ICMVs,[6]; mixed with MPLA or adjuvanted with Montanide or alum,at least 10 fold
same,Antigen-specific IgG isotype response,"[6]; with MPLA, d 90",only Th2-skewed IgG1 antibodies
same,GCs per dLN,[7],complete absence
same,Recognition of the AGDR motif by sera,[8],did not recognize
